Key:
[1] = target: thermolysin-cleaved SUDV GP (GP(S)THL) (Sudan virus (SUDV)) (UniProt Q7T9D9); test: BLI, Fab, pH 7.4
[2] = target: thermolysin-cleaved SUDV GP (GP(S)THL) (Sudan virus (SUDV)) (UniProt Q7T9D9); test: BLI, Fab, pH 5.3
[3] = target: full-length Sudan GP (GPFL) (Sudan virus (SUDV)) (UniProt Q7T9D9); test: BLI, Fab, pH 7.4
[4] = target: full-length Sudan GP (GPFL) (Sudan virus (SUDV)) (UniProt Q7T9D9); test: BLI, Fab, pH 5.3

| Binder | Kd [1] | koff [1] | kon [1] | Kd [2] | koff [2] | kon [2] | Kd [3] | koff [3] | kon [3] | Kd [4] | koff [4] | kon [4] |
| --- | --- | --- | --- | --- | --- | --- | --- | --- | --- | --- | --- | --- |
| Fab generated from 291S (Fab, V domains shown) VH: QVQLQESGPGLVKPSQTLSLTCTVSGGSFSSGFYWSWIRQRPGKGLEWVGYTYYSGSTYYNPSLQSRVTISVDTSKNQFSLNLSSVTAADTAVYHCARADYGGLFDYWGQGILVTVSS VL: QSVLTQPSSLSASPGASASLTCTLRSGINVGTYRIFWYQQKPGSPPQFLLRYNSDSDKQQGSGVPSRFSGSKDASANAGILLISGLQSEDEADYYCMIWHTSAWVFGGGTKLTVL | 0.19 nM | 5.1e-05 s⁻¹ | 264000 M⁻¹ s⁻¹ | 0.67 nM | 0.000166 s⁻¹ | 248000 M⁻¹ s⁻¹ | – | – | – | – | – | – |
| Fab generated from 246S (Fab, V domains shown) VH: QVQLVQSGAEVKKPGSSVKVSCKASGDTFSTYAITWVRQAPGQGLEWMGRIIPILGVTNYAQKFQGRVTFTADKSTITAYLELVNLRSEDTAVYYCTRDGYGGRDLLLNYYWGQGTLVTVSS VL: EIVLTQSPGLLFWFPGERATLSCRASQSVSSSKLAWYQQKPGQAPRLLIYGASSRAPGIPDRFSGSGSGTDFTLTINRLEPEDFAVYFCQQYGSAQWTFGQGTKVDFK | – | – | – | – | – | – | 23.2 nM | 0.000493 s⁻¹ | 21200 M⁻¹ s⁻¹ | 34.2 nM | 0.000384 s⁻¹ | 11200 M⁻¹ s⁻¹ |

Source: patent US20260209316A1
